Tests used:
[1] = substrate: C=CCCC[C@H](C(=O)O)[C@@H](O)C(=O)O; assay: (§1) Activity of recombinant Saccharomyces cerevisiae homoisocitrate dehydrogenase expressed in Escherichia coli Rosetta cells
[2] = substrate: C=CC[C@H](C(=O)O)[C@@H](O)C(=O)O; assay: as §1
[3] = substrate: C=C[C@H](C(=O)O)[C@@H](O)C(=O)O; assay: as §1
[4] = substrate: CCCCC[C@H](C(=O)O)[C@@H](O)C(=O)O; assay: as §1
[5] = substrate: CCC[C@H](C(=O)O)[C@@H](O)C(=O)O; assay: as §1
[6] = substrate: CC[C@H](C(=O)O)[C@@H](O)C(=O)O; assay: as §1
[7] = substrate: C[C@H](C(=O)O)[C@@H](O)C(=O)O; assay: as §1
[8] = substrate: O=C(O)CCCC[C@H](C(=O)O)[C@@H](O)C(=O)O; assay: as §1
[9] = substrate: O=C(O)CCC[C@H](C(=O)O)[C@@H](O)C(=O)O; assay: as §1
[10] = substrate: O=C(O)CC[C@H](C(=O)O)[C@@H](O)C(=O)O; assay: as §1
[11] = substrate: O=C(O)[C@@H](CCCCO)[C@@H](O)C(=O)O; assay: as §1
[12] = substrate: O=C(O)[C@@H](CCCO)[C@@H](O)C(=O)O; assay: as §1
[13] = substrate: O=C(O)[C@@H](CCO)[C@@H](O)C(=O)O; assay: as §1
[14] = substrate: C=CCCC[C@H](C(=O)O)[C@@H](O)C(=O)O; assay: (§2) Ratio of kcat/km of recombinant Saccharomyces cerevisiae homoisocitrate dehydrogenase expressed in Escherichia coli Rosetta cells above 10 mM
[15] = substrate: C=CC[C@H](C(=O)O)[C@@H](O)C(=O)O; assay: as §2
[16] = substrate: C=C[C@H](C(=O)O)[C@@H](O)C(=O)O; assay: as §2
[17] = substrate: CCCCC[C@H](C(=O)O)[C@@H](O)C(=O)O; assay: as §2
[18] = substrate: CCC[C@H](C(=O)O)[C@@H](O)C(=O)O; assay: as §2
[19] = substrate: CC[C@H](C(=O)O)[C@@H](O)C(=O)O; assay: as §2
[20] = substrate: C[C@H](C(=O)O)[C@@H](O)C(=O)O; assay: as §2
[21] = substrate: O=C(O)CCCC[C@H](C(=O)O)[C@@H](O)C(=O)O; assay: as §2
[22] = substrate: O=C(O)CCC[C@H](C(=O)O)[C@@H](O)C(=O)O; assay: as §2
[23] = substrate: O=C(O)CC[C@H](C(=O)O)[C@@H](O)C(=O)O; assay: as §2
[24] = substrate: O=C(O)[C@@H](CCCCO)[C@@H](O)C(=O)O; assay: as §2
[25] = substrate: O=C(O)[C@@H](CCCO)[C@@H](O)C(=O)O; assay: as §2
[26] = substrate: O=C(O)[C@@H](CCO)[C@@H](O)C(=O)O; assay: as §2

B1: Homoisocitrate dehydrogenase, mitochondrial (Saccharomyces cerevisiae S288c), P40495 (protein)
chain: MFRSVATRLSACRGLASNAARKSLTIGLIPGDGIGKEVIPAGKQVLENLNSKHGLSFNFIDLYAGFQTFQETGKALPDETVKVLKEQCQGALFGAVQSPTTKVEGYSSPIVALRREMGLFANVRPVKSVEGEKGKPIDMVIVRENTEDLYIKIEKTYIDKATGTRVADATKRISEIATRRIATIALDIALKRLQTRGQATLTVTHKSNVLSQSDGLFREICKEVYESNKDKYGQIKYNEQIVDSMVYRLFREPQCFDVIVAPNLYGDILSDGAAALVGSLGVVPSANVGPEIVIGEPCHGSAPDIAGKGIANPIATIRSTALMLEFLGHNEAAQDIYKAVDANLREGSIKTPDLGGKASTQQVVDDVLSRL
[1]
  Km: 9400 µM
  kcat: 0.14 s⁻¹
[2]
  Km: 410 µM
  kcat: 0.34 s⁻¹
[3]
  Km: 3400 µM
  kcat: 0.5 s⁻¹
[4]
  Km: 7200 µM
  kcat: 0.11 s⁻¹
[5]
  Km: 290 µM
  kcat: 0.7 s⁻¹
[6]
  Km: 600 µM
  kcat: 0.61 s⁻¹
[7]
  Km: 5700 µM
  kcat: 0.32 s⁻¹
[8]
  Km: 170 µM
  kcat: 3.1 s⁻¹
[9]
  Km: 26 µM
  kcat: 1.6 s⁻¹
[10]
  Km: 18 µM
  kcat: 17 s⁻¹
[11]
  Km: 440 µM
  kcat: 2.1 s⁻¹
[12]
  Km: 580 µM
  kcat: 4.8 s⁻¹
[13]
  Km: 2100 µM
  kcat: 0.78 s⁻¹
[14]
  kcat/Km: 15 M⁻¹ s⁻¹
[15]
  kcat/Km: 830 M⁻¹ s⁻¹
[16]
  kcat/Km: 150 M⁻¹ s⁻¹
[17]
  kcat/Km: 15 M⁻¹ s⁻¹
[18]
  kcat/Km: 2400 M⁻¹ s⁻¹
[19]
  kcat/Km: 1000 M⁻¹ s⁻¹
[20]
  kcat/Km: 56 M⁻¹ s⁻¹
[21]
  kcat/Km: 18000 M⁻¹ s⁻¹
[22]
  kcat/Km: 62000 M⁻¹ s⁻¹
[23]
  kcat/Km: 940000 M⁻¹ s⁻¹
[24]
  kcat/Km: 4800 M⁻¹ s⁻¹
[25]
  kcat/Km: 8300 M⁻¹ s⁻¹
[26]
  kcat/Km: 370 M⁻¹ s⁻¹
